Values quoted from earlier work, collected in patent publication US20240277840A1, “SUPERCONCENTRATED FORMULATIONS OF BIOACTIVE AGENTS” (UPKARA, INC., priority 2021, published 2024).

Details: intraperitoneal (IP) administration, preclinical

## catumaxomab
  local concentration of the antibody in the ascites fluid: high local concentrations
  systemic exposure, detectable in plasma: < 5%
